Changes are numbered by the printed parent chain. Names and notes keep the numbering of the source. Values joined by “and” are separate entries in the source; they are usually repeats but may differ in a detail not shown here. Equal values may be shown once.
Assays:
[1] = target: the molecule itself; assay: mass photometry; free enzyme, 500 nM, 30 mM HEPES buffer, pH 7.5, 20 °C; histograms fitted to the sum of five Gaussian distributions
[2] = target: the molecule itself; assay: mass photometry; in the presence of substrates, under the reaction conditions; fitted globally with the kinetic data (association constants monomer to trimer K_(a,3E), hexamer K_(a,6E), higher oligomers K_(a,agg))
[3] = target: the molecule itself; assay: not stated; oligomeric state under all conditions of the kinetic experiments (Fig. S8); method not given

B1: fluorinase FlA1 from Streptomyces sp. strain MA37 (5'-fluoro-5'-deoxyadenosine synthase), wild type (enzyme, UniProt W0W999 1-299, looked up)
chain: MAANGSQRPIIAFMSDLGTTDDSVAQCKGLMHSICPGVTVVDVCHSMTPWDVEEGARYIVDLPRFFPEGTVFATTTYPATGTTTRSVAVRIRQAAKGGARGQWAGSGDGFERADGSYIYIAPNNGLLTTVLEEHGYIEAYEVTSTKVIPANPEPTFYSREMVAIPSAHLAAGFPLAEVGRRLDDSEIVRFHRPAVEISGEALSGVVTAIDHPFGNIWTNIHRTDLEKAGIGQGKHLKIILDDVLPFEAPLTPTFADAGAIGNIAFYLNSRGYLSLARNAASLAYPYNLKAGLKVRVEAR
notes: fluorinase FlA1 (5'-fluoro-5'-deoxyadenosine synthase), Streptomyces sp. strain MA37; Exists as trimers, hexamers and higher oligomers; also called wild-type FlA1; wild-type fluorinase; source: overexpressed in Escherichia coli, purified
stoichiometry N [1]: 3 and 6

B2: fluorinase FlA1 variant W50F (enzyme, Streptomyces sp. strain MA37, UniProt W0W999 1-299, looked up)
chain: B1 chain with W50F
notes: fluorinase FlA1, Streptomyces sp. strain MA37, wild type with W50F
binding result [2]: binds

B3: fluorinase FlA1 variant A279R (enzyme, Streptomyces sp. strain MA37, UniProt W0W999 1-299, looked up)
chain: B1 chain with A279R
notes: fluorinase FlA1, Streptomyces sp. strain MA37, wild type with A279R
stoichiometry N [2]: 6

B4: fluorinase FlA1 variant C44T (enzyme, Streptomyces sp. strain MA37, UniProt W0W999 1-299, looked up)
chain: B1 chain with C44T
notes: fluorinase FlA1, Streptomyces sp. strain MA37, with C44T; everywhere else C44T; also called FlA1+C44T
stoichiometry N [3]: 6

B5: fluorinase FlA1 double mutant W50F+A279R (enzyme, Streptomyces sp. strain MA37, UniProt W0W999 1-299, looked up)
chain: B1 chain with W50F, A279R
notes: fluorinase FlA1, Streptomyces sp. strain MA37, wild type with W50F and A279R; also called A279R+W50F; FlA1+A279R+W50F
stoichiometry N [2]: 6

Source: paper doi:10.1101/2025.07.28.666932, “Mechanism-Guided Engineering of Fluorinase Unlocks Efficient Nucleophilic Biofluorination” (bioRxiv, 2025)
